Drawing on patent publication US20170101442A1, this text covers cellular uptake and Kd for one molecule.

For experiment [1], the target named is insulin-like growth factor 2 receptor (IGF2R) on rat hepatic stellate cells HSC-T6 (rat). Put plainly: flow cytometry, uptake of 5-FAM labelled peptide by HSC-T6 cells, 1 h. (In general: A flow cytometer gives signals particle by particle.)
For experiment [2] the target is unchanged. The experiment can be described thus: flow cytometry, 5-FAM labelled peptide titrated on HSC-T6 cells, 1 h at 37 C; apparent Kd.

Ends that are not written are not given here.

B1: Peptide-431 (peptide)
peptide: VHWDFRQWWQPS
modifications: also: 5-FAM label, position not given here
Take B1: in experiment [1], the cellular uptake is 12%. In addition, the Kd in experiment [2] was 12.3 µM.
